{"source": "paper doi:10.1101/2021.04.18.440036", "target": "protective antigen (PA) prepore (Bacillus anthracis)", "assay": "cryo-EM structure", "note": "Values joined by “and” are separate entries in the source; they are usually repeats but may differ in a detail not shown here. Identical values can stand only once."}
{"substance": "protective antigen (PA) prepore (complex)", "values": [{"measurement": "stoichiometry N", "result": "7 and 8"}]}
